In the Human Domainome abundance scans (Beltran et al. 2025):
± gives the uncertainty stated by the source.

B1: Activity-dependent neuroprotector homeobox protein, residues 770 to 810; numbered along this chain, Q9H2P0 (parent)
chain: FLTKYFNKQPYPTRREIEKLAASLWLWKSDIASHFSNKRKK

Variants of: B1
Experiment: abundance fitness (aPCA) (normalised: wild type 0, dead -1); higher = more abundant; growth selection in yeast, the domain comes from the species named
Conditions: Homo sapiens

Question: For FLTKYFNKQPYPTRREIEKLAASLWLWKSDIADHFSNKRKK, which abundance fitness is on record?
Answer: -0.267 ± 0.14

Question: With FLTKYFNKQPYPTRREIEKLAASLWLWKSDIAHHFSNKRKK as the variant, how does the abundance fitness read?
Answer: 0.018 ± 0.091

Question: With FLTKYFNKQPYPTRREIEKLAASLWLWKSDIARHFSNKRKK as the variant, how does the abundance fitness read?
Answer: 0.032 ± 0.052

Question: With FLTKYFNKQPYPTRREIEKLAASLWLWKSDIAWHFSNKRKK as the variant, how does the abundance fitness read?
Answer: -0.147 ± 0.082

Question: With FLTKYFNKQPYPTRREIEKLAASLWLWKSDIAVHFSNKRKK as the variant, how does the abundance fitness read?
Answer: -0.276 ± 0.074

Question: For FLTKYFNKQPYPTRREIEKLAASLWLWKSDIAMHFSNKRKK, which abundance fitness is on record?
Answer: -0.061 ± 0.064

Question: For FLTKYFNKQPYPTRREIEKLAASLWLWKSDIAPHFSNKRKK, which abundance fitness is on record?
Answer: -0.01 ± 0.053

Question: For FLTKYFNKQPYPTRREIEKLAASLWLWKSDIALHFSNKRKK, which abundance fitness is on record?
Answer: -0.154 ± 0.053

Question: For FLTKYFNKQPYPTRREIEKLAASLWLWKSDIAYHFSNKRKK, which abundance fitness is on record?
Answer: -0.381 ± 0.076

Question: Which abundance fitness does the source give for FLTKYFNKQPYPTRREIEKLAASLWLWKSDIACHFSNKRKK here?
Answer: -0.058 ± 0.06

Question: Which abundance fitness does the source give for FLTKYFNKQPYPTRREIEKLAASLWLWKSDIAKHFSNKRKK here?
Answer: 0.044 ± 0.085

Question: For FLTKYFNKQPYPTRREIEKLAASLWLWKSDIATHFSNKRKK, which abundance fitness is on record?
Answer: -0.076 ± 0.06

Question: With FLTKYFNKQPYPTRREIEKLAASLWLWKSDIAFHFSNKRKK as the variant, how does the abundance fitness read?
Answer: -0.244 ± 0.073

Question: Which abundance fitness does the source give for FLTKYFNKQPYPTRREIEKLAASLWLWKSDIAQHFSNKRKK here?
Answer: -0.033 ± 0.062

Question: With FLTKYFNKQPYPTRREIEKLAASLWLWKSDIAAHFSNKRKK as the variant, how does the abundance fitness read?
Answer: 0.014 ± 0.058

Question: Which abundance fitness does the source give for FLTKYFNKQPYPTRREIEKLAASLWLWKSDIAGHFSNKRKK here?
Answer: -0.023 ± 0.051

Question: Which abundance fitness does the source give for FLTKYFNKQPYPTRREIEKLAASLWLWKSDIANHFSNKRKK here?
Answer: -0.284 ± 0.13

Question: For FLTKYFNKQPYPTRREIEKLAASLWLWKSDIAIHFSNKRKK, which abundance fitness is on record?
Answer: -0.149 ± 0.098

Question: Which abundance fitness does the source give for FLTKYFNKQPYPTRREIEKLAASLWLWKSDIASHFSNKEKK here?
Answer: -0.249 ± 0.11

Question: Which abundance fitness does the source give for FLTKYFNKQPYPTRREIEKLAASLWLWKSDIASHFSNKIKK here?
Answer: -0.035 ± 0.076

Question: With FLTKYFNKQPYPTRREIEKLAASLWLWKSDIASHFSNKAKK as the variant, how does the abundance fitness read?
Answer: -0.076 ± 0.052

Question: Which abundance fitness does the source give for FLTKYFNKQPYPTRREIEKLAASLWLWKSDIASHFSNKLKK here?
Answer: 0.031 ± 0.048

Question: Which abundance fitness does the source give for FLTKYFNKQPYPTRREIEKLAASLWLWKSDIASHFSNKCKK here?
Answer: -0.189 ± 0.11

Question: Which abundance fitness does the source give for FLTKYFNKQPYPTRREIEKLAASLWLWKSDIASHFSNKGKK here?
Answer: -0.195 ± 0.08

Question: For FLTKYFNKQPYPTRREIEKLAASLWLWKSDIASHFSNKMKK, which abundance fitness is on record?
Answer: 0.134 ± 0.078

Question: Which abundance fitness does the source give for FLTKYFNKQPYPTRREIEKLAASLWLWKSDIASHFSNKFKK here?
Answer: -0.157 ± 0.067

Question: For FLTKYFNKQPYPTRREIEKLAASLWLWKSDIASNFSNKRKK, which abundance fitness is on record?
Answer: -0.107 ± 0.096

Question: For FLTKYFNKQPYPTRREIEKLAASLWLWKSDIASYFSNKRKK, which abundance fitness is on record?
Answer: -0.151 ± 0.065

Question: With FLTKYFNKQPYPTRREIEKLAASLWLWKSDIASVFSNKRKK as the variant, how does the abundance fitness read?
Answer: 0.117 ± 0.051

Question: With FLTKYFNKQPYPTRREIEKLAASLWLWKSDIASEFSNKRKK as the variant, how does the abundance fitness read?
Answer: -0.275 ± 0.068

Question: With FLTKYFNKQPYPTRREIEKLAASLWLWKSDIASKFSNKRKK as the variant, how does the abundance fitness read?
Answer: 0.022 ± 0.079

Question: With FLTKYFNKQPYPTRREIEKLAASLWLWKSDIASGFSNKRKK as the variant, how does the abundance fitness read?
Answer: -0.043 ± 0.055

Question: With FLTKYFNKQPYPTRREIEKLAASLWLWKSDIASDFSNKRKK as the variant, how does the abundance fitness read?
Answer: -0.388 ± 0.11

Question: For FLTKYFNKQPYPTRREIEKLAASLWLWKSDIASAFSNKRKK, which abundance fitness is on record?
Answer: 0.006 ± 0.047

Question: For FLTKYFNKQPYPTRREIEKLAASLWLWKSDIASIFSNKRKK, which abundance fitness is on record?
Answer: 0.068 ± 0.075

Question: For FLTKYFNKQPYPTRREIEKLAASLWLWKSDIASTFSNKRKK, which abundance fitness is on record?
Answer: -0.128 ± 0.065

Question: For FLTKYFNKQPYPTRREIEKLAASLWLWKSDIASCFSNKRKK, which abundance fitness is on record?
Answer: 0.069 ± 0.056

Question: Which abundance fitness does the source give for FLTKYFNKQPYPTRREIEKLAASLWLWKSDIASQFSNKRKK here?
Answer: -0.032 ± 0.054

Question: With FLTKYFNKQPYPTRREIEKLAASLWLWKSDIASMFSNKRKK as the variant, how does the abundance fitness read?
Answer: 0.043 ± 0.091

Question: For FLTKYFNKQPYPTRREIEKLAASLWLWKSDIASPFSNKRKK, which abundance fitness is on record?
Answer: -0.01 ± 0.05

Question: With FLTKYFNKQPYPTRREIEKLAASLWLWKSDIASRFSNKRKK as the variant, how does the abundance fitness read?
Answer: -0.085 ± 0.048

Question: Which abundance fitness does the source give for FLTKYFNKQPYPTRREIEKLAASLWLWKSDIASSFSNKRKK here?
Answer: -0.02 ± 0.048

Question: Which abundance fitness does the source give for FLTKYFNKQPYPTRREIEKLAASLWLWKSDIASHFSNLRKK here?
Answer: -0.197 ± 0.054

Question: With FLTKYFNKQPYPTRREIEKLAASLWLWKSDIASHFSNYRKK as the variant, how does the abundance fitness read?
Answer: -0.433 ± 0.1

Question: With FLTKYFNKQPYPTRREIEKLAASLWLWKSDIASHFSNCRKK as the variant, how does the abundance fitness read?
Answer: -0.193 ± 0.1

Question: With FLTKYFNKQPYPTRREIEKLAASLWLWKSDIASHFSNNRKK as the variant, how does the abundance fitness read?
Answer: -0.298 ± 0.079

Question: For FLTKYFNKQPYPTRREIEKLAASLWLWKSDIASHFSNERKK, which abundance fitness is on record?
Answer: -0.327 ± 0.085

Question: For FLTKYFNKQPYPTRREIEKLAASLWLWKSDIASHFSNFRKK, which abundance fitness is on record?
Answer: -0.269 ± 0.073

Question: Which abundance fitness does the source give for FLTKYFNKQPYPTRREIEKLAASLWLWKSDIASHFSNHRKK here?
Answer: -0.112 ± 0.065

Question: For FLTKYFNKQPYPTRREIEKLAASLWLWKSDIASHFSNPRKK, which abundance fitness is on record?
Answer: -0.206 ± 0.052

Question: With FLTKYFNKQPYPTRREIEKLAASLWLWKSDIASHFSNTRKK as the variant, how does the abundance fitness read?
Answer: -0.229 ± 0.056

Question: For FLTKYFNKQPYPTRREIEKLAASLWLWKSDIASHFSNIRKK, which abundance fitness is on record?
Answer: -0.182 ± 0.13

Question: Which abundance fitness does the source give for FLTKYFNKQPYPTRREIEKLAASLWLWKSDIASHFSNQRKK here?
Answer: -0.216 ± 0.11

Question: Which abundance fitness does the source give for FLTKYFNKQPYPTRREIEKLAASLWLWKSDIASHFSNVRKK here?
Answer: -0.119 ± 0.047

Question: For FLTKYFNKQPYPTRREIEKLAASLWLWKSDIASHFSNRRKK, which abundance fitness is on record?
Answer: -0.115 ± 0.053

Question: Which abundance fitness does the source give for FLTKYFNKQPYPTRREIEKLAASLWLWKSDIASHFSNWRKK here?
Answer: -0.242 ± 0.11

Question: With FLTKYFNKQPYPTRREIEKLAASLWLWKSDIASHFSNARKK as the variant, how does the abundance fitness read?
Answer: -0.167 ± 0.05

Question: Which abundance fitness does the source give for FLTKYFNKQPYPTRREIEKLAASLWLWKSDIASHFSNSRKK here?
Answer: -0.183 ± 0.049

Question: Which abundance fitness does the source give for FLTKYFNKQPYPTRREIEKLAASLWLWKSDIASHFSNGRKK here?
Answer: -0.09 ± 0.048

Question: With FLTKYFNKQPYPTRREIEKLAASLWLWKSDIPSHFSNKRKK as the variant, how does the abundance fitness read?
Answer: -0.383 ± 0.11

Question: Which abundance fitness does the source give for FLTKYFNKQPYPTRREIEKLAASLWLWKSDIWSHFSNKRKK here?
Answer: 0.113 ± 0.091
